Measured values from patent US20180245061A1, “Modified Heterocyclase” (THE UNIVERSITY COURT OF THE UNIVERSITY OF ABERDEEN, priority 2014, published 2018).
Substitutions are numbered along the chain they refer to.

T1: PatE' (precursor peptide PatE variant, 64 amino acids, full leader, single core peptide ITACITFC, C-terminal …)
T1 peptide: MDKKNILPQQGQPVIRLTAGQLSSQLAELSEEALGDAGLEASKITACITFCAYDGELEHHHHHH

T2: PatE' E31R
T2 construct: Point mutant of PatE'
T2 peptide: T1 peptide with E31R

B1: LynD R74E (enzyme)
chain: MQSTPLLQIQPHFHVEVIEPKQVYLLGEQANHALTGQLYCQILPLLNGQYTLEQIVEKLDGEVPPEYIDYVLEELAEKGYLTEAAPELSSEVAAFWSELGIAPPVAAEALRQPVTLTPVGNISEVTVAALTTALRDIGISVQTPTEAGSPTALNVVLTDDYLQPELAKINKQALESQQTWLLVKPVGSVLWLGPVFVPGKTGCWDCLAHRLRGNREVEASVLRQKQAQQQRNGQSGSVIGCLPTARATLPSTLQTGLQFAATEIAKWIVKYHVNATAPGTVFFPTLDGKIITLNHSILDLKSHILIKRSQCPTCGDPKILQHRGFEPLKLESRPKQFTSDGGHRGTTPEQTVQKYQHLISPVTGVVTELVRITDPANPLVHTYRAGHSFGSATSLRGLRNTLKHKSSGKGKTDSQSKASGLCEAVERYSGIFQGDEPRKRATLAELGDLAIHPEQCLCFSDGQYANRETLNEQATVAHDWIPQRFDASQAIEWTPVWSLTEQTHKYLPTALCYYHYPLPPEHRFARGDSNGNAAGNTLEEAILQGFMELVERDGVALWWYNRLRRPAVDLGSFNEPYFVQLQQFYRENDRDLWVLDLTADLGIPAFAGVSNRKTGSSERLILGFGAHLDPTIAILRAVTEVNQIGLELDKVPDENLKSDATDWLITEKLADHPYLLPDTTQPLKTAQDYPKRWSDDIYTDVMTCVNIAQQAGLETLVIDQTRPDIGLNVVKVTVPGMRHFWSRFGEGRLYDVPVKLGWLDEPLTEAQMNPTPMPF
notes: Point mutant of LynD
B2: LynD: full-length cyanobactin heterocyclase LynD (Lyngbya sp. PCC 8106), SEQ ID NO: 1 (protein)
chain: B1 chain with E74R
modifications: Lyngbya sp. PCC 8106

How the values were obtained:
[1] = target: Lyngbya sp. LynD heterocyclase, wild type, SEQ ID NO: 1; assay: ITC nucleotide binding (ATP/AMP) to LynD; design: species or system Lyngbya sp. PCC 8106; conditions: 25° C., pH 7.4, 5 mM MgCl2, one-site model, stoichiometry set to 1, read-out: Nucleotide KD (AMP)
Experimental: (§1) Codon optimized full-length LynD (Lyngbya sp. PCC 8106) with an N-terminal TEV protease-cleavable His6-tag was purchased from DNA2.0 in the pJexpress411 plasmid. The protein was expressed in Escherichia coli BL21 (DE3) grown on auto-induction medium {Studier, 2005, Protein expression and purification, 41, 207-234} for 48 h at 20° C. Cells were harvested by centrifugation at 4,000×g, 4° C. for 15 min and re-suspended in lysis buffer (500 mM NaCl, 20 mM Tris pH 8.0, 20 mM imidazole and 3 mM β-mercaptoethanol (BME)) with the addition of complete EDTA-free protease inhibitor tablets (Roche) and 0.4 mg DNase g^−1 wet cells (Sigma). Cells were lysed by passage through a cell disruptor at 30 kPSI (Constant Systems Ltd) and the lysate was cleared by centrifugation at 40,000×g, 4° C. for 20 min. The cleared lysate was applied to a Nickel Sepharose 6 Fast Flow (GE Healthcare) column pre-washed with lysis buffer and protein eluted with 250 mM imidazole. The protein was then passed over a desalting column (Desalt 16/10, GE Healthcare) in 100 mM NaCl, 20 mM Tris pH 8.0, 20 mM imidazole, 3 mM BME. Tobacco etch virus (TEV) protease was added to the protein at a mass-to-mass ratio of 1:10 and the protein digested for 2 h at 20° C. to remove the Hiss-tag. However, removal of the Hiss-tag was not essential for activity and so less vigorous methods for purification may also be used. […]

[2] = target: Lyngbya sp. LynD heterocyclase (SEQ ID NO: 1) variant K409E; assay: ITC nucleotide binding (ATP/AMP) to LynD K409E; design: species or system Lyngbya sp. PCC 8106; conditions: 25° C., pH 7.4, 5 mM MgCl2
Experimental: as §1

[3] = target: Lyngbya sp. LynD heterocyclase (SEQ ID NO: 1) variant K409A; assay: ITC nucleotide binding (ATP/AMP) to LynD K409A; design: species or system Lyngbya sp. PCC 8106; conditions: 25° C., pH 7.4, 5 mM MgCl2
Experimental: as §1

[4] = target: Lyngbya sp. LynD heterocyclase (SEQ ID NO: 1) variant E423R; assay: ITC nucleotide binding (ATP/AMP) to LynD E423R; design: species or system Lyngbya sp. PCC 8106; conditions: 25° C., pH 7.4, 5 mM MgCl2
Experimental: as §1

[5] = target: Lyngbya sp. LynD heterocyclase (SEQ ID NO: 1) variant R427E; assay: ITC nucleotide binding (ATP/AMP) to LynD R427E; design: species or system Lyngbya sp. PCC 8106; conditions: 25° C., pH 7.4, 5 mM MgCl2
Experimental: as §1

[6] = target: Lyngbya sp. LynD heterocyclase (SEQ ID NO: 1) variant R636E; assay: ITC nucleotide binding (ATP/AMP) to LynD R636E; design: species or system Lyngbya sp. PCC 8106; conditions: 25° C., pH 7.4, 5 mM MgCl2
Experimental: as §1

[7] = target: Lyngbya sp. LynD heterocyclase (SEQ ID NO: 1) variant R636A; assay: ITC nucleotide binding (AMP) to LynD R636A; design: species or system Lyngbya sp. PCC 8106; conditions: 25° C., pH 7.4, 5 mM MgCl2
Experimental: as §1

[8] = target: T1, PatE' (precursor peptide PatE variant, …); assay: ITC, 20 C
PatE' E31R = target: T2, PatE' E31R; assay: ITC, 20 C
PatE′ [9] = assay: Heterocyclization reaction with PatE′, MS analysis; type: biochemical; conditions: 5 mM ATP, 5 mM MgCl2, 16 h at 37° C.; for No. of heterocycles, peptide PatE′: 2 μM enzyme, TABLE 2
Experimental: (§2) For all heterocyclization reactions, […] PatE′ (and variants,) was incubated with 2 μM enzyme in 150 mM NaCl, 10 mM HEPES pH 7.4, 1 mM TCEP, 5 mM ATP and 5 mM MgCl2 for 16 h at 37° C. Samples were analyzed by ESI or MALDI MS (LCT, Micromass or 4800 MALDI TOF/TOF Analyzer, ABSciex). For cis trans activation studies, 100 μM ITACITFCAYDG synthetic test peptide (Peptide Protein Research Ltd) was reacted with 5 μM heterocyclase enzyme in the presence and absence of 5.5 μM LAELSEEAL synthetic peptide, or 5.5 μM full-length PatE′4 leader peptide. The reaction was carried out in 150 mM NaCl, 10 mM HEPES pH 7.4, 1 mM TCEP, 5 mM ATP and 5 mM MgCl2 for 16 h at 37° C. and analyzed as above. Synthetic peptides were purchased from Peptide Protein Research Ltd.

PatE′ [10] = assay: ITC substrate peptide binding: PatE′; conditions: 10 μM enzyme, 150 μM peptide, 20° C.
Experimental: (§3) ITC experiments were performed using a VP-ITC instrument (MicroCal) in heterocyclization reaction buffer (150 mM NaCl, 10 mM HEPES pH7.4, 1 mM TCEP) supplemented with 5 mM MgCl2. For substrate binding experiments a cell solution of 10 μM LynD (and mutants) and a syringe solution of 150 μM PatE′ (and mutants) was prepared by diluting protein and peptide with the buffer used for dialysis. For nucleotide binding experiments, the cell concentration was increased to 20 μM, and the ATP/AMP concentration in the syringe solution was 300 μM. Substrate, and ATP experiments were performed at 20° C., and AMP experiments at 25° C. Cell and syringe solutions were degassed for 15 min at 18 and 23° C. Titration method was as follows: one injection of 2 μl followed by injections of 5 μl at 0.5 μl/min, with a delay of 4 min between every injection. The stirring speed was 307 rpm throughout. Raw data was processed using MicroCal Origin software, and the baseline was adjusted and the integrations limits were selected manually. Data was non-linearly fitted to the one-site model (Origin) setting the stoichiometry to 1.

PatE′ E31R = assay: ITC substrate peptide binding: PatE′ E31R; conditions: 10 μM enzyme, 150 μM peptide, 20° C.
Experimental: as §3

PatE′ L26R [11] = assay: ITC substrate peptide binding: PatE′ L26R; conditions: 10 μM enzyme, 150 μM peptide, 20° C.
Experimental: as §3

PatE′ L29R = assay: ITC substrate peptide binding: PatE′ L29R; conditions: 10 μM enzyme, 150 μM peptide, 20° C.
Experimental: as §3

PatE′ L26R [12] = assay: Heterocyclization reaction with PatE′ L26R; type: biochemical; conditions: 2 μM enzyme, 5 mM ATP, 5 mM MgCl2, 16 h at 37° C.
Experimental: as §2

PatE′ E32R = assay: Heterocyclization reaction with PatE′ E32R; type: biochemical; conditions: 2 μM enzyme, 5 mM ATP, 5 mM MgCl2, 16 h at 37° C.
Experimental: as §2

Sequence of PatE′ E31R (as listed by the source, stated change not applied): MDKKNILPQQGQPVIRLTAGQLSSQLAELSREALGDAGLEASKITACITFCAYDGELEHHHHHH
Sequence of PatE′ L26R (as listed by the source, stated change not applied): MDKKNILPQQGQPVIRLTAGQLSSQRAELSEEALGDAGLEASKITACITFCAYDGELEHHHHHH
Sequence of PatE′ E32R (as listed by the source, stated change not applied): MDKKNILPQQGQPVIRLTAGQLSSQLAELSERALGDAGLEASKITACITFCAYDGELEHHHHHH
Sequence of PatE′ L29R (as listed by the source, stated change not applied): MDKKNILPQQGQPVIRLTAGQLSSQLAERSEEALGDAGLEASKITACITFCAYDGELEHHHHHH
Sequence of PatE′ L29R (as listed by the source partner): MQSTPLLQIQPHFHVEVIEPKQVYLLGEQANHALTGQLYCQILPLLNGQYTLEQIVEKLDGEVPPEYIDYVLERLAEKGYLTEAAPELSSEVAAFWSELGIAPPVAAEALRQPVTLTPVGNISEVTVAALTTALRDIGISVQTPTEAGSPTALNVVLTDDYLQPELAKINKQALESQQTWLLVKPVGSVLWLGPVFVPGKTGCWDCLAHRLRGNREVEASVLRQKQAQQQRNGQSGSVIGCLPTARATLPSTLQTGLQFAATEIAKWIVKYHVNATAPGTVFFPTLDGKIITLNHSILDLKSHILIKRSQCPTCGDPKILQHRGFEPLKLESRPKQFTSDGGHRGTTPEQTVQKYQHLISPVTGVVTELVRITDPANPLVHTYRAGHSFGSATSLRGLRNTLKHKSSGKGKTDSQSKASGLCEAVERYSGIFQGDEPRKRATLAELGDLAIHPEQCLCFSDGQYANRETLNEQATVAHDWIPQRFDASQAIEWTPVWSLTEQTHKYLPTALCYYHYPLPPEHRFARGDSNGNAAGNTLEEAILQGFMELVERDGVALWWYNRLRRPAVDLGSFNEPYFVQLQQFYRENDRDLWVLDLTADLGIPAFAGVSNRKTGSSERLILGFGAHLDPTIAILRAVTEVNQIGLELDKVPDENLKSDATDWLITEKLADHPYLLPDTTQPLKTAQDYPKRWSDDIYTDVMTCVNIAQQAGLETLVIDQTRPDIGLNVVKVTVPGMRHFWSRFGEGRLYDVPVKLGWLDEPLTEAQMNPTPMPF

| Molecule | Kd [1] [µM] | Nucleotide KD (AMP) [2] | Nucleotide KD (AMP) [3] | Kd [4] [µM] | Kd [5] [µM] | Nucleotide KD (AMP) [6] | Nucleotide KD (AMP) [7] | binding result [8] | binding result (PatE' E31R) | No. of heterocycles, peptide PatE′ (PatE′ [9]) | KD (μM), peptide PatE′ (PatE′ [10]) | KD (μM), peptide PatE′ E31R (PatE′ E31R) | No. of heterocycles (PatE′) (PatE′ [9]; PatE′ with 2 μM enzyme, TABLE 1) | KD (μM), peptide PatE′ L26R (PatE′ L26R [11]) | KD (μM), peptide PatE′ L29R (PatE′ L29R) | No. of heterocycles, peptide PatE′ L26R (PatE′ L26R [12]) | No. of heterocycles, peptide PatE′ E32R (PatE′ E32R) |
| --- | --- | --- | --- | --- | --- | --- | --- | --- | --- | --- | --- | --- | --- | --- | --- | --- | --- |
| Nc1ncnc2c1ncn2[C@@H]1O[C@H](COP(=O)(O)O)[C@@H](O)[C@H]1O [AMP] | 14.4 | no binding | no binding | 5.65 | 23 | no binding | no binding |  |  |  |  |  |  |  |  |  |  |
| B1 |  |  |  |  |  |  |  | no binding | no binding | 2 | no binding | no binding |  |  |  |  |  |
| B2 |  |  |  |  |  |  |  |  |  | 2 |  | no binding | 2 | no binding | no binding | 2 | 2 |
